Measured values as given in publication PMC12197871 (Protein Science : A Publication of the Protein Society, 2025).

Molecular target: GsLDH (Geobacillus stearothermophilus, UniProt P00344)
Experiment: GsLDH kinetic studies
Assay type: biochemical

fold higher substrate inhibition (lower K i) compared to the WT (with FBP) [fold]	n (Hill coefficient) (without FBP)	Molecule	k cat (with FBP (5 mM)) [s⁻¹]	k cat/K m or k cat/K 0.5 (with FBP (5 mM)) [M⁻¹ s⁻¹]	k cat (without FBP) [s⁻¹]	k cat/K m or k cat/K 0.5 (without FBP) [M⁻¹ s⁻¹]
20	1.4 ± 0.1	Gln189Leu: GsLDH single mutant Gln189Leu, located at the dimer–dimer interface (protein, UniProt P00344 1-317, looked up, variant Q189L) L-lactate dehydrogenase: MKNNGGARVVVIGAGFVGASYVFALMNQGIADEIVLIDANESKAIGDAMDFNHGKVFAPKPVDIWHGDYDDCRDADLVVICAGANQKPGETRLDLVDKNIAIFRSIVESVMASGFQGLFLVATNPVDILTYATWKFSGLPHERVIGSGTILDTARFRFLLGEYFSVAPQNVHAYIIGEHGDTELPVWSLAYIGVMPIRKLVESKGEEAQKDLERIFVNVRDAAYQIIEKKGATYYGIAMGLARVTRAILHNENAILTVSAYLDGLYGERDVYIGVPAVINRNGIREVIEIELNDDEKNRFHHSAATLKSVLARAFTR	83	106000 ± 19000	73 ± 12	32000 ± 4000
–	–	Triple mutant: previously reported GsLDH triple mutant with substitutions Arg104Cys, Gln189Leu and Asn293Ser (protein, UniProt P00344 1-317, looked up, variant R104C Q189L N293S) L-lactate dehydrogenase: MKNNGGARVVVIGAGFVGASYVFALMNQGIADEIVLIDANESKAIGDAMDFNHGKVFAPKPVDIWHGDYDDCRDADLVVICAGANQKPGETRLDLVDKNIAIFCSIVESVMASGFQGLFLVATNPVDILTYATWKFSGLPHERVIGSGTILDTARFRFLLGEYFSVAPQNVHAYIIGEHGDTELPVWSLAYIGVMPIRKLVESKGEEAQKDLERIFVNVRDAAYQIIEKKGATYYGIAMGLARVTRAILHNENAILTVSAYLDGLYGERDVYIGVPAVINRNGIREVIEIELSDDEKNRFHHSAATLKSVLARAFTR	94	156000 ± 59000	57 ± 8	141000 ± 18000
–	1.5 ± 0.1	WT: wild‐type L‐lactate dehydrogenase from Geobacillus stearothermophilus (UniProt P00344), N‐terminal His‐tagged (protein, UniProt P00344 1-317, looked up, N-terminal His-tag) L-lactate dehydrogenase: MKNNGGARVVVIGAGFVGASYVFALMNQGIADEIVLIDANESKAIGDAMDFNHGKVFAPKPVDIWHGDYDDCRDADLVVICAGANQKPGETRLDLVDKNIAIFRSIVESVMASGFQGLFLVATNPVDILTYATWKFSGLPHERVIGSGTILDTARFRFLLGEYFSVAPQNVHAYIIGEHGDTELPVWSQAYIGVMPIRKLVESKGEEAQKDLERIFVNVRDAAYQIIEKKGATYYGIAMGLARVTRAILHNENAILTVSAYLDGLYGERDVYIGVPAVINRNGIREVIEIELNDDEKNRFHHSAATLKSVLARAFTR	64	144000 ± 67000	118 ± 34	43000 ± 13000
